# According to the supplement of paper PMC10567573:
# B1: ELF3 (parent)
# chain: LSKEYWDCLEGKKSKHAPRGTHLW
# B2: BTBD10 (parent)
# chain: FVYENAKEGARNIRTSERVTLIVD
# Variants of: B1
# Assay: protein stability index of a GFP-peptide fusion (GPS, HEK-293T) (PSI 1-6); higher = more stable
# Conditions: c terminus: a fixed tail appended
# 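Also: lentivirally expressed fusions sorted by FACS into six bins by GFP to DsRed ratio, PSI derived from sequencing read proportions per bin multiplied by bin number.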
row,Variant,protein stability index
1,CSKEYWDCLEGKKSKHAPRGTHLW [L1C],2.42
2,DSKEYWDCLEGKKSKHAPRGTHLW [L1D],3.2
3,ESKEYWDCLEGKKSKHAPRGTHLW [L1E],3.35
4,ASKEYWDCLEGKKSKHAPRGTHLW [L1A],2.79

# Variants of: B2
# Assay: as above
# Conditions: c terminus: a fixed tail appended
row,Variant,protein stability index
1,FVYENAKEGARNIRTSERVTLIVP [D24P],2.06
2,FVYENAKEGARNIRTSERVTLIVQ [D24Q],2.03
3,FVYENAKEGARNIRTSERVTLIVE [D24E],1.65
4,FVYENAKEGARNIRTSERVTLIVS [D24S],1.18
5,FVYENAKEGARNIRTSERVTLIVN [D24N],1.95
6,FVYENAKEGARNIRTSERVTLIVW [D24W],3.12
7,FVYENAKEGARNIRTSERVTLIVA [D24A],1.49
8,FVYENAKEGARNIRTSERVTLIVM [D24M],1.95
9,FVYENAKEGARNIRTSERVTLIVV [D24V],2.35
10,FVYENAKEGARNIRTSERVTLIVF [D24F],2.88
11,FVYENAKEGARNIRTSERVTLIVL [D24L],2.03
12,FVYENAKEGARNIRTSERVTLIVY [D24Y],2.01
13,FVYENAKEGARNIRTSERVTLIVG [D24G],1.82
14,FVYENAKEGARNIRTSERVTLIVK [D24K],1.72
15,FVYENAKEGARNIRTSERVTLIVC [D24C],1.91
16,FVYENAKEGARNIRTSERVTLIVT [D24T],2.5
17,FVYENAKEGARNIRTSERVTLIVI [D24I],2.95
18,FVYENAKEGARNIRTSERVTLIVR [D24R],1.93
19,FVYENAKEGARNIRTSERVTLIVH [D24H],1.66
20,FVYENAKEGARNIRTSERVTDIVD [L21D],3.07
21,FVYENAKEGARNIRTSERVTMIVD [L21M],1.99
22,FVYENAKEGARNIRTSERVTWIVD [L21W],2.56
23,FVYENAKEGARNIRTSERVTTIVD [L21T],2.07

row,Variant,protein stability index
1,FVYENAKEGARNIRTSERVTEIVD [L21E],2.79
2,FVYENAKEGARNIRTSERVTHIVD [L21H],2.11
3,FVYENAKEGARNIRTSERVTVIVD [L21V],1.64
4,FVYENAKEGARNIRTSERVTPIVD [L21P],2.03
5,FVYENAKEGARNIRTSERVTGIVD [L21G],2.56
6,FVYENAKEGARNIRTSERVTQIVD [L21Q],2.83
7,FVYENAKEGARNIRTSERVTKIVD [L21K],2.6
8,FVYENAKEGARNIRTSERVTYIVD [L21Y],1.89
9,FVYENAKEGARNIRTSERVTNIVD [L21N],2.63
10,FVYENAKEGARNIRTSERVTSIVD [L21S],2.32
11,FVYENAKEGARNIRTSERVTIIVD [L21I],1.57
12,FVYENAKEGARNIRTSERVTRIVD [L21R],2.14
13,FVYENAKEGARNIRTSERVTFIVD [L21F],1.88
14,FVYENAKEGARNIRTSERVTAIVD [L21A],2.34
15,FVYENAKEGARNIRTSERVTCIVD [L21C],2.32
16,FVYENAKEGARNIRTSFRVTLIVD [E17F],3.19
17,FVYENAKEGARNIRTSKRVTLIVD [E17K],2.18
18,FVYENAKEGARNIRTSYRVTLIVD [E17Y],2.24
19,FVYENAKEGARNIRTSTRVTLIVD [E17T],1.23
20,FVYENAKEGARNIRTSCRVTLIVD [E17C],3.19
21,FVYENAKEGARNIRTSHRVTLIVD [E17H],1.8
22,FVYENAKEGARNIRTSPRVTLIVD [E17P],1.54
23,FVYENAKEGARNIRTSARVTLIVD [E17A],2.17

row,Variant,protein stability index
1,FVYENAKEGARNIRTSVRVTLIVD [E17V],3.52
2,FVYENAKEGARNIRTSLRVTLIVD [E17L],3.89
3,FVYENAKEGARNIRTSDRVTLIVD [E17D],1.74
4,FVYENAKEGARNIRTSSRVTLIVD [E17S],1.91
5,FVYENAKEGARNIRTSMRVTLIVD [E17M],2.82
6,FVYENAKEGARNIRTSIRVTLIVD [E17I],2.25
7,FVYENAKEGARNIRTSNRVTLIVD [E17N],2.22
8,FVYENAKEGARNIRTSQRVTLIVD [E17Q],1.87
9,FVYENAKEGARNIRTSGRVTLIVD [E17G],3.65
10,FVYENAKEGARNIRTSRRVTLIVD [E17R],1.46
11,FVYENAKEGARNIRTSERVTLFVD [I22F],2.06
12,FVYENAKEGARNIRTSERVTLSVD [I22S],2.67
13,FVYENAKEGARNIRTSERVTLAVD [I22A],1.76
14,FVYENAKEGARNIRTSERVTLRVD [I22R],2.24
15,FVYENAKEGARNIRTSERVTLPVD [I22P],2.89
16,FVYENAKEGARNIRTSERVTLCVD [I22C],2.33
17,FVYENAKEGARNIRTSERVTLHVD [I22H],2.2
18,FVYENAKEGARNIRTSERVTLGVD [I22G],1.72
19,FVYENAKEGARNIRTSERVTLKVD [I22K],2.34
20,FVYENAKEGARNIRTSERVTLNVD [I22N],2.72
21,FVYENAKEGARNIRTSERVTLVVD [I22V],2.92
22,FVYENAKEGARNIRTSERVTLYVD [I22Y],1.81
23,FVYENAKEGARNIRTSERVTLEVD [I22E],3

row,Variant,protein stability index
1,FVYENAKEGARNIRTSERVTLLVD [I22L],1.72
2,FVYENAKEGARNIRTSERVTLMVD [I22M],2.77
3,FVYENAKEGARNIRTSERVTLTVD [I22T],2.41
4,FVYENAKEGARNIRTSERVTLDVD [I22D],2.96
5,FVYENAKEGARNIRTSERVTLQVD [I22Q],2.31
6,FVYENAKEGARNIRTSERVTLWVD [I22W],3.09
7,FVYENAKEGARNIRTTERVTLIVD [S16T],1.89
8,FVYENAKEGARNIRTGERVTLIVD [S16G],2.41
9,FVYENAKEGARNIRTKERVTLIVD [S16K],2.09
10,FVYENAKEGARNIRTFERVTLIVD [S16F],1.58
11,FVYENAKEGARNIRTRERVTLIVD [S16R],2.34
12,FVYENAKEGARNIRTAERVTLIVD [S16A],1.99
13,FVYENAKEGARNIRTLERVTLIVD [S16L],1.39
14,FVYENAKEGARNIRTCERVTLIVD [S16C],2.02
15,FVYENAKEGARNIRTMERVTLIVD [S16M],2.28
16,FVYENAKEGARNIRTNERVTLIVD [S16N],2.64
17,FVYENAKEGARNIRTHERVTLIVD [S16H],1.78
18,FVYENAKEGARNIRTEERVTLIVD [S16E],2.57
19,FVYENAKEGARNIRTVERVTLIVD [S16V],1.34
20,FVYENAKEGARNIRTDERVTLIVD [S16D],2.33
21,FVYENAKEGARNIRTWERVTLIVD [S16W],2.1
